Reference: article PMC9877012

Key:
[1] = target: Poly-L-lysine hydrobromide (MW, 70,000-150,000 Da); assay: co-sedimentation; precipitation rate of LOX: LOX mixed with PLL, centrifuged at 18,000 x g for 20 min at 25 °C, LOX in the supernatant by absorbance at 280 nm; 5 µM LOX, 1 mM PLL, 5-20 mM (NH4)2SO4
[2] = target: Poly-L-lysine hydrobromide (MW, 70,000-150,000 Da)

B1: L-lactate oxidase (enzyme)
chain: MNNNDIEYNAPSEIKYIDVVNTYDLEEEASKVVPHGGFNYIAGASGDEWTKRANDRAWKHKLLYPRLAQDVEAPDTSTEILGHKIKAPFIMAPIAAHGLAHTTKEAGTARAVSEFGTIMSISAYSGATFEEISEGLNGGPRWFQIYMAKDDQQNRDILDEAKSDGATAIILTADSTVSGNRDRDVKNKFVYPFGMPIVQRYLRGTAEGMSLNNIYGASKQKISPRDIEEIAGHSGLPVFVKGIQHPEDADMAIKRGASGIWVSNHGARQLYEAPGSFDTLPAIAERVNKRVPIVFDSGVRRGEHVAKALASGADVVALGRPVLFGLALGGWQGAYSVLDYFQKDLTRVMQLTGSQNVEDLKGLDLFDNPYGYEY
percent of LOX in the droplets [1]: 90% | relative enzyme activity of LOX (0.1 µM) with 0.02 mM PLL against LOX without PLL, 0-10 mM (NH4)2SO4 (about 15 times without and about five times with 10 mM ammonium sulfate) [2]: 15 fold
